The text below walks through data of patent US20190048085A1 (CELL MEDICA SWITZERLAND, published 2019).

Assay [1] concerns the target monkey PD-L1 Fc fusion (monkey (Rhesus macaque, Macaca mulatta)) (UniProt F6PJN1). Kind of assay: KinExA, room temperature, two curves (50 pM and 10 pM scFv). In general terms: A kinetic exclusion assay measures how much of one partner remains free in solution.
Assay [2] deals with T1, recombinant human PD-L1 Fc fusion (human, UniProt Q9NZQ7 19-239).
T1 construct: Bought Fc fusion (RnD Systems 156-B7); also called rhPD-L1 Fc fusion; not shown: Fc part of the bought fusion
T1 sequence (Q9NZQ7 19-239 limits assumed): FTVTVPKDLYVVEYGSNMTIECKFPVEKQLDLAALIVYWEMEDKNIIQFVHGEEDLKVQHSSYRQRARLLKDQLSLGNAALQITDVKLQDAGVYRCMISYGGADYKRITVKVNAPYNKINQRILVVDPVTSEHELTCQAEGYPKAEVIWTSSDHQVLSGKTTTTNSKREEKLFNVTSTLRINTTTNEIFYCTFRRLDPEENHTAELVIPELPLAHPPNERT
Put plainly: ELISA on immobilized recombinant human PD-L1-Fc (2 µg/mL), detection with Protein L-HRP, A450 nm. As to the method:
After, blocking with 5% non-fat dry milk, increasing concentrations of scFv was added and detected by Protein L-HRP (Sigma-Aldrich).

Assay [3] addresses monkey PD-L1 Fc fusion (monkey (Rhesus macaque, Macaca mulatta)) (UniProt F6PJN1). Put plainly: KinExA, ratio of KD values.

B1: anti-PD-L1 scFv (scFv)
scFv: EIVMTQSPSTLSASVGDRVIITCQASEDIYSLLAWYQQKPGKAPKLLIYDASDLASGVPSRFSGSGSGAEFTLTISSLQPDDFATYYCQGNYGSSSSSSYGAVFGQGTKLTVLGGGGGSGGGGSGGGGSGGGGSEVQLVESGGGLVQPGGSLRLSCTVSGIDLSSYTMGWVRQAPGKGLEWVGIISSGGRTYYASWAKGRFTISRDTSKNTVYLQMNSLRAEDTAVYYCARGRYTGYPYYFALWGQGTLVTVSS
notes: Humanized scFv with rabbit CDRs, VL-linker-VH; also called scFv1; scFv control
The Kd is a measure of binding affinity in units of concentration. By EC50 (read off the curve) is commonly meant the concentration giving half of the maximal effect. For the molecule B1, the Kd in assay [1] stood at 3.3 pM. Moreover, the “EC50 (read off the curve)” value in assay [2] was ~8 ng/mL. Also, in assay [3], the fold tighter affinity than binding to human PD-L1 was found to be 2.7 fold.
